In US20140287419A1, “Compositions Having Dicamba Decarboxylase Activity and Methods of Use” (priority 2013, published 2014):

Assay: 14C assay with IPTG-induced recombinant E. coli cells (14CO2 capture from [14C]-carboxyl-labeled dicamba)
Settings: for Dicamba Decarboxylase Activity: IPTG-induced recombinant E. coli cells, [14C]-carboxyl-labeled dicamba, 14CO2 capture; for Enzymatic Detection level: dicamba decarboxylation activity of the protein of the given SEQ ID NO

Molecule | Dicamba Decarboxylase Activity | Enzymatic Detection level
6 (protein, Treponema brennaborense) MAEILSPEESIYYSKLSNDILAEGIKKNPTRFRGFAALPTPDPIQAAMELERCIKLGGFVGAIINGHINGHYLDEIQFDPILEAADALDVPLYIHPAVPPKAIIDTYYKMNDTYAQTVMVSGGWGWHIETGVHVLRLISSGVFDRHPNLKIVIGHLGEGLPFFMHRLNNAIGGNLKKSYSTYLKENIYYTISGFNDPDLFQFVLKKVGENNIMFSSDYPFNFPKREVELFNELNISEEVREKISFKNAERILKI | No | No
77 (protein, Burkholderia xenovorans) MALIDLHAHAPHPGYYNQHPHWGPFFERHEDGDVKLRVGDWILTLGSPERKALVRAGKGPTVEEYQARWADPKVRLAGMDAAGQNAQVVSVPSHCYMYWAEKEFSVPFATKVNDTFAEYCSAAPDRLMFWAHAALNAPEQAALELRRACTELGAKGLVAGGANFGGLEFDSPELDPVWKVLCDLDLPMFIHGYNQSVTWGKKANDDRYETTAIVGMQYDETRCFWNLVCGGVLDRFPGLKVYITHGGGYVPYQLGRLAQCNGNLDVAHNKKPVLEYLKNNFYFDVELHEVPMRQALIDIIGADRVLYGSNFGGSDAVRHDLTEGLRLSDDDLQKIRWKNACKLLHLDPAKIGEPAKKQAVSA | No | No
68 (protein, listed as Hoeflea phototrophica) MAIIDAHTHTLCPAVNEKVAGTIKPDSVPYQRDMSPESKEQDHTQFPELKIMFNQVERRLADMARMGIDRQVIAPAPGQQHYWAEPKLLAEISALQNDHVAELVARAPDRFAGIGTLPMTDPDAAVAEITRATRELGLRVFQIDSRVMERELSDASLDPIYAALEAAGAGLMIHPLGFSNGERLTPFFMVNSVAQPLEELLAFNHLVFGGVLDRFPKLKVYIAHGGGFAPFYIGRFDHAWKVRPEVNRLTPSAPSTYLRRIYFDTCVYRTDHIETLVRTVGADRVMLGSDYPFDMGDTDPLGLLNACQGLSDDEKATISSKVAIDFFGLET | No | No
69 (protein, listed as Microbacterium testaceum) MATSTEGQDVTDVHAHLLMPGLHAEVERRVPDEVQAAADLELRRNGLASLQASGRMIGERFPRLTDVRARLAAMDEQGVDRQWVSPSPNHFYPWANEGLATWASGEANRLIAEHVALAPDRLVGLGVVPLQHPHLVVDALDDAVLGRGLAGVEISSFAGDVELSDERLESFWARAAELRAVVFLHPFGCSLDERLDRFYLSNTVGQPTENAVALSHLIFSGVLDRHPGLRLIAAHGGGYLPTAIGRSDRAWRVRPEARGCAHAPSTYLSKLWFDTVVHDERALRWLVEAAGADRVLLGSDFPFDMGLDDPVAFVRGAGLQDAEVSGILGGNAAELLRTRVHA | No | No
76 (protein, listed as Polymorphum gilvum) MAKKIDIFNHIWPEPFFKALIAHIGEMTDITMRSGAVPMMTNLDRRFEVMDMFGPDYMQVLSLASPPLEKLADPAKALELSRIGSDSLAELCQRYPERFPAFIGTAPLSNPAAVVGECRRAIEDLGAAGMQIFTNVAGKPLDLAEFEPFFEYMASAGKPVWLHPARGEAFADYQTEKRSEYEIWWTFGWPYETSAAMARLVFSRMFDKYPGLKVITHHAGGMVPFFEGRVGPGWDQMGARTTDRDLAAVRKALKRPHLDYFKEFYADTASFGSRKAIEHAIEFFGEDRVLFASDAPFDPEGGPMYIRETMRCIDSLDLTDAQRRKIYHGNATALLGLSL | No | No
71 (protein, listed as Burkholderia dolosa) MARAGHRAARTRQSRPGDRTMTCSCCMSAGRRRVLGAFAALAGAPKGPRAASAAQPAAASKPTRGDATARNRHSRALLPGKASASWSATKASGSGGAFAWDDTTFTFRTPAGGLGPLPMKFIDVDARLRDMDASGVDVQALSLSVPMAYWGDRPFNAKLARAWNTAASRVHVRAPDRFVVLATLPMLDATDAIDELERASELPGVRGVYMGTNIDNRDLDDPRFAPVFARIEQLGLPVFLHPQQTVGGARLGDFYLSNLLGNPFDTAIAASHLILGGVLDRHPALHFTLPHAGGALPILVGRLDAGWTVRAETRRLAHQPSGYLRRFSYDTVSHSGPVLNFLIENVGIDRLVLGSDYCFDMGYEQPVRFLDRLDLTPDERAMVIGGNAGRLLRI | Low | Low
73 (protein, listed as Sphaerobacter thermophilus) MARIDAHAHAQPPEYLDALLASGRYESVRDAEGRIVVRERGSRFLTITPQMHHPEQRVAEMDEAGIDMQILSVTTPQVYFLQGQAAVDLARRCNDYLADIVRSYPTRFRALASVPLTADPDAAVREFVRCLDDLGMVGAIIGSNIDGRPIDDPAFDAFYAEADRRATTLFIHPMVPAGIEVMNPYALAPLVGFMFDTTLAVSRLIFSGFFERYPRVKVLVGHLGAAVPYLAGRLDIGWRSYSDCQGIPHPPTEYIRRLYLDTVSFHAPALRCALETVGPDRIVFGSDYPHVIGDVGGAIASIQQALPATTHDGVLGHTAAELFGVSA | Low | Low
74 (protein, listed as Ramlibacter tataouinensis) MATVIDVHTHMFTTKWLELLKKEGGQYNIQTRPDGQQEIFRGNTPVVIPQKGHFDWKLRIQHMDQAGIDVSVVSLTCPNVYWGGEDVSVRAAREANDNVAQAQTAYPDRIRWFASLPWEYMATVIDVHTHMFTTKWLELLKKEGGQYNIQTRPDGQQEIFRGNTPVVIPQKGHFDWKLRIQHMDQAGIDVSVVSLTCPNVYWGGEDVSVRAAREANDNVAQAQTAYPDRIRWFASLPWEYPQRAVEELERSCAQGAAGVMVLANVAGRSLTDPLFAPVWAEIDRRALPVLVHPTDPPGVDLMDMTKFDLSWSVGFMFDTTLAITRMIFEGFFDRYPNLRIIASHGGGTLPYLVGRFEKGDEVELASRRQMKRKPTDYLRHIHYDCITYNLGALQYLISVVGAGQVMFGTDWPHWVHDTRGAFANTAQLPQEQTRAVRGANAQRLFKL | Low | Low
5 (protein, listed as Staphylococcus aureus) MAQNNMEANQMKSITFEEHYVIEDIQKETMNAISADPKGVPMKVMLEGLEKKTGFTNADELSHHDERIQFMNNQDVQIQVLSYGNGSPSNLVGQKAIELCQKANDQLANYIAQYPNRFVGFATLPINEPEAAAREFERCINDLGFKGALIMGRAQDGFLDQDKYDIIFKTAENLGVPIYLHPAPVNSDIYQSYYKGNYPEVTAATFACFGYGWHIDVGIHAIHLVLSGIFDRYPKLNMIIGHWGEFIPFFLERMDEALFAEHLNHPVSYYFKNNFYITPSGMLTKPQFDLVKKEAGIDRILYAADYPYIEPEKLGVFLDELGLTDEEKEKISYTNGAKLLGLSSNN | High | High
79 (protein, Pyrenophora teres) MATTTTPSTLIATLESHLTPTLAFTSPTTSPTQPALHLIPPTTLTKLRNLGPGRVKDMHMLGHSRQIISHIPVAAPPQICSRFNDAIHAATMTNTAKFSVLAVLPTDGMEAAKELARCVSKYRFVGGVIGLNRGLRINGEGWEELWGLAERLRIPIMFREMWPLAFEIVDYQHHLPYSALGPILTQLHTSHTSSPLPLVRLYLSSVFDHYPSLRLVLAHPGSLPSLVPRIESLINSIPATDKPKRSFLDVWQHNIYLTTADAQDMSSLRALLEQIPVDRVLYASNYPFEERGNELMNELRESEFLTNIEWERVAWVNAETLFNLKEAGTKEARQLTTIPSSRS | High | High
78 (protein, listed as Marinobacter adhaerens) MALIDLHAHAPHPDYYDQHPHWGPAFELQSDGDIKLRVGHWVLSLGAPERKQALREAHARGETLDVQEYMAKWRDPEHRLASMDAAGQNAQVLSVPSHCYMYWAEPEFGVPFAKKVNDSLAEYCSAAPDRLMFWAHAPLNVPKEAAKEIRRACTELGAKGLVAGGSNFGGLEFDSPEMDPVWEALCDLDLPMFVHGYNQSVTWGEEANTDRYETTAIVGMNYDESKCFWYMINGGVFDRFPNLKVYITHGGGFVPYQLGRMAQTNPNLDTYHNKKPFLEYLKNFYFDVELHEVPMRQAMVEVIGADRVLYGSNFGGSDAVRHDLTDDLKLSQEDLDKIRWKNACDLLHLDPNKLGKVRG | Low | Low
72 (protein, Cupriavidus necator) MADCPCCVSPKRRRLLGSVSAIAAGMMAGLPALAAQPSTAAAGTGKPLSIDIHAHYYSESFLGLLGGEGKQFGGHFFRNDDSFTFQTPAGGLGPLPMKFIDVEQRVRDMDNSGVDVQAISLSVPMVYWADRTLNAKLARAWNTAASDVHRKHPTRFVVLATLPMLNANDAIDELEFAAGLPGVRGIYMGTNINNRDLDDPLFSPIFKRIEQLNLPIFLHPQQTVGGARLADFYLSNLLGNPFDTAIAASHLILGGVLDKYPALHFSLPHAGGALPILVGRIDAGWSMRSETKRVAQKPSSYLRRFSYDTISHSGPTLDFLIRNIGADRLVLGSDYCFDMGYEQPVRFLDRLALPDDQKRMVVGGNAARLLNL | Low | Low
75 (protein, listed as Ectocarpus siliculosus) MAKIDSYTHFACPAFMDHLEAESGHPMVFRGLFSSIPELSDIDLRIRYMDEHGIDVHCLVPLPWLECEPGLHADEGKALEACRIANDEMARVVARFPDRLIGVALIPTTTEQAMIQETTRAVKELGMAGVALFVGPTAKPPDMACFEGLYRTCEELGAVVWMHPCRPQSYADYDSYKGEGSKHQIWNTFGWIYDTSVAMVHIALAGVFRRYPGLKVVTHHHGAMVPFFTARFDTQRRNFQEVEGDDLLEDLRLFYCDTATFGESAANIQQAIDFFGKSQVLFGTDTPMDMGTRGMFTRTTIASVEALGAAPEDKESFYAGNVLDMLGERFAGISGARGAVAARPKGDSTRIAASL | Low | Low
70 (protein, listed as Alicyclobacillus acidocaldarius) MAIEPNRAADVHTHFLPTEVLEFLKREPRIQVDLERRAPDKEPFLTVEGRWSFELKRMFVDFEAFASAYRQAGIGLALVSPLPQLFVYHLPAEMGAQVAEVYNDALRDVLAPHRERFRPLATLPLADPTAAARELERRMDEGFVGAIVGPGVGEALIGDEAFWPLWEVADARRAVLFLHPLLHADPRAARLMLPNLVGVPWETTLAAAHLVLSGLLDRYPGARVLLAHGGGFLPYQIGRIEQGYDVWPQVRGRLQDRPTAYLRRMFYDNVLWSDAALRCLIDVVGADRVLAGSDFPFDLSAWPPRPGADVSVLAGGSGREGRLS | Low | Low
